Measurements taken from patent US20180256699A1 (University of Texas, published 2018).
Like-named read-outs stand apart in the source and are kept apart here.

Key:
[1] = biological target: T1, HP1096*, hydrophobic domain of ACT, residues 399-1096, MBP fusion, acylated (Bordetella pertussis, UniProt J7QLC0 399-1096); assay: ELISA: HP1096* coated equimolar with ACT, M1H5 IgG titrated from 1 nM, detected with anti-human Fc-HRP
[2] = biological target: T2, CAT400, catalytic domain of ACT, residues 1-400 (Bordetella pertussis, UniProt J7QLC0 1-400); assay: ELISA: CAT400 coated equimolar with ACT, M1H5 IgG titrated from 1 nM, detected with anti-human Fc-HRP
[3] = biological target: T3, Bordetella adenylate cyclase toxin (ACT), full-length, acylated (Bordetella pertussis, UniProt J7QLC0 1-1706); assay: cell-based or functional assay
[4] = biological target: T4, RTX751, RTX domain of ACT, residues 751-1706, non-acylated (Bordetella pertussis, UniProt J7QLC0 751-1706); assay: method and antibody format not stated
T4 construct: Expressed without CyaC

[5] = biological target: RTX985, RTX domain of ACT, residues 985-1706 (Bordetella pertussis, UniProt J7QLC0 985-1706)
[6] = biological target: T4, RTX751, RTX domain of ACT, residues …
[7] = biological target: T2, CAT400, catalytic domain of ACT, …; assay: ELISA: CAT400 coated equimolar with ACT, M2B10 IgG titrated from 1 nM, detected with anti-human Fc-HRP
[8] = biological target: T1, HP1096*, hydrophobic domain of ACT, …; assay: ELISA: HP1096* coated equimolar with ACT, M2B10 IgG titrated from 1 nM, detected with anti-human Fc-HRP
[9] = biological target: T3, Bordetella adenylate cyclase toxin …; assay: ELISA: ACT coated, M2B10 IgG titrated from 1 nM, detected with anti-human Fc-HRP
Br-RTX751 = biological target: T5, Br-RTX751 (Bordetella bronchiseptica); assay: ELISA: Br-RTX751 coated, M2B10 IgG titrated
T5 construct: fragment

Bpp-RTX751 = biological target: T6, Bpp-RTX751 (Bordetella parapertussis); assay: ELISA: Bpp-RTX751 coated, M2B10 IgG titrated
T6 construct: fragment

[10] = biological target: T4, RTX751, RTX domain of ACT, residues …; assay: ELISA: Bp-RTX751 coated, M2B10 IgG titrated

B1: M1H5 chimeric IgG1/κ antibody (antibody, V domains shown)
VH: EVNLVESGGDLVKPGGSLKLSCAASGFTFSSYGMSWVRQTPDKRLEWVATISSGGTYTYYPDSVKGRFTISRDNAKNTLYLQMSSLKSEDTAMYYCAREIMRGGGYYFDYWSQGTTLTVSS
VL: DIQMIQSTSSLSASLGDRVTISCRASQDISNYLNWYQQKPDGTVKLLIYYTSRLHSGVPSRFSGSGSGTDYSLTISNLEQEDIATYFCQQGNTLPYTFGGGTKLEIKR
notes: also called M1H5 IgG; not shown: human IgG1 constant domains (IgG-Abvec vector); human kappa constant domain (Igκ-Abvec vector)
- binding result [1]: no binding (tested: 1 nM)
- binding result [2]: no binding (tested: 1 nM)

B2: M1F10 single-chain antibody fragment (scAb) (scFv, not shown: a dimerising Fc or GST)
scFv: DIVMTQSPASLAVSLGQRATISCRASESVGNYGISFTNWYQQKPGQPPKLLIYAASNLESGIPARFSGSGSGTDFTLNIHPVEEEDAATYYCQQSNEDPYTFGGGTKLEIKRGGGGGGSGGGGSGGGGSGGGGSEVKLVESGGDLVKPGGSLKLSCAASGFTFSSYGMSWVRQTPDKRLEWVATISSGGTYTYYPDSVKGRFTISRDNAKNTLYLQMSSLKSEDTAMYYCAREIMRGGGYYFDYWGQGTTLTVSS
- reduction of intracellular cAMP level in J774A.1 cells, scAb at 160-fold molar excess over ACT [3]: > 90%

B3: M2C2 single-chain antibody fragment (scAb) (scFv, not shown: a dimerising Fc or GST)
scFv: DIVLTQSPAIMSASLGERVTMTCTASSSVSSSYLHWYQQKPGSSPKLWIYSTSNLASGVPARFSGSGSGTSYSLTISSMEAEDAATYYCHQYHRSPPTFGGGTKLEIKRGGGGGGSGGGGSGGGGSGGGGSQVQLQQSGPELGKPGASVKISCKASGYLFTGYNIYWVKQSHRKSLEWIGYINPYNGDTSYNQKSKGKATLTVDRSSSTAYMHLNSLTSEDSAIYFCARGYYVRPLDYWGQGTTLTVSS
- reduction of intracellular cAMP level in J774A.1 cells, scAb at 160-fold molar excess over ACT [3]: > 90%

B4: M1E2 single-chain antibody fragment (scAb) (scFv, not shown: a dimerising Fc or GST)
scFv: DIVMTQSPAIMSASLGERVTMTCTASSSVSSSYLHWYQQKPGSSPKLWIYSTSNLASGVPARFSGSGSGTSYSLTISSMEAEDAATYYCHQYHRSPPTFGGGTKLEIKRGGGGGGSGGGGSGGGGSGGGGSQVQLKQSGAELVRPGTSVKVSCKASGYAFTNYLIEWVKQRPGQGLEWIGVINPGIGNTNYNEKFKGKATLTADKSSSTVYMQLSSLTSDDSAVYFCARGLNYGSSQHWYFDVWGAGTTVTVSS
- reduction of intracellular cAMP level in J774A.1 cells, scAb at 160-fold molar excess over ACT [3]: > 90%

B5: M1H1 single-chain antibody fragment (scAb) (scFv, not shown: a dimerising Fc or GST)
scFv: DIVMTQSPAIMSASLGERVTMTCTASSSVSSSYLHWYQQKPGSSPKLWIYSTSNLASGVPARFSGSGSGTSYSLTISSMEAEDAATYYCHQYHRSPPTFGGGTKLELKRGGGGGGSGGGGSGGGGSGGGGSQVQLQQSGAELVRPGTSVKVSCKASGYAFTNYLIEWVKQRPGQGLEWIGVINPGIGNTNYNEKFKGKATLTADKFSSTASMQLSSLTSDDSAVYFCARGLNYGSSQHWYFDVWGAGTSVTVSS
- reduction of intracellular cAMP level in J774A.1 cells, scAb at 160-fold molar excess over ACT [3]: > 90%

B6: M2B10 single-chain antibody fragment (scAb) (scFv)
scFv: DIVMTQSPAILSASLGERVTMTCTASSSVSSSYLHWYQQKPGSSPKLWIYSTSNLASGVPARFSGSGSGTSYSLTISSMEAEDAATYYCHQYHRSPPTFGAGTKLEIKRGGGGGGSGGGGSGGGGSGGGGSEVQLQQSGAELVRPGTSVKVSCKASGYAFTNYLIEWVKQRPGQGLEWIGVINPGIGNTNYNEKFKGKATLTADKSSSTVYMQLSSLTSDDSAVYFCARGLNYGSSQHWYFDVWGAGTSVTVSS
- reduction of intracellular cAMP level in J774A.1 cells, scAb at 160-fold molar excess over ACT [3]: > 90%

B7: M2B10 antibody (format not stated) (antibody, V domains shown)
VH: EVQLQQSGAELVRPGTSVKVSCKASGYAFTNYLIEWVKQRPGQGLEWIGVINPGIGNTNYNEKFKGKATLTADKSSSTVYMQLSSLTSDDSAVYFCARGLNYGSSQHWYFDVWGAGTSVTVSS
VL: DIVMTQSPAILSASLGERVTMTCTASSSVSSSYLHWYQQKPGSSPKLWIYSTSNLASGVPARFSGSGSGTSYSLTISSMEAEDAATYYCHQYHRSPPTFGAGTKLEIKR
- IC50, J774A.1 macrophage cell line intoxication assay with 125 ng/mL ACT (0.7 nM) [3]: 6 nM
- Kd [4]: ~1.2 nM

B8: M2C2 antibody (format not stated) (antibody, V domains shown)
VH: QVQLQQSGPELGKPGASVKISCKASGYLFTGYNIYWVKQSHRKSLEWIGYINPYNGDTSYNQKSKGKATLTVDRSSSTAYMHLNSLTSEDSAIYFCARGYYVRPLDYWGQGTTLTVSS
VL: DIVLTQSPAIMSASLGERVTMTCTASSSVSSSYLHWYQQKPGSSPKLWIYSTSNLASGVPARFSGSGSGTSYSLTISSMEAEDAATYYCHQYHRSPPTFGGGTKLEIKR
- IC50, J774A.1 macrophage cell line intoxication assay with 125 ng/mL ACT (0.7 nM) [3]: 8.1 nM
- Kd [4]: ~1.5 nM

B9: M2B10 chimeric IgG1/κ antibody (antibody, V domains shown)
VH: EVQLQQSGAELVRPGTSVKVSCKASGYAFTNYLIEWVKQRPGQGLEWIGVINPGIGNTNYNEKFKGKATLTADKSSSTVYMQLSSLTSDDSAVYFCARGLNYGSSQHWYFDVWGAGTSVTVSS
VL: DIVMTQSPAILSASLGERVTMTCTASSSVSSSYLHWYQQKPGSSPKLWIYSTSNLASGVPARFSGSGSGTSYSLTISSMEAEDAATYYCHQYHRSPPTFGAGTKLEIKR
notes: also called M2B10 IgG; not shown: human IgG1 constant domains (IgG-Abvec vector); human kappa constant domain (Igκ-Abvec vector)
- EC50 (read off the curve) [5]: ~0.04 nM
- EC50 (read off the curve) [6]: ~0.04 nM
- binding result [7]: no binding (tested: 1 nM)
- binding result [8]: no binding (tested: 1 nM)
- EC50 (read off the curve) [9]: ~0.04 nM
- EC50 (read off the curve) (Br-RTX751): ~0.05 nM
- EC50 (read off the curve) (Bpp-RTX751): ~0.05 nM
- EC50 (read off the curve) [10]: ~0.05 nM
